Biological target: T1, NFATc-589 (translated in vitro) (human)
T1 chain: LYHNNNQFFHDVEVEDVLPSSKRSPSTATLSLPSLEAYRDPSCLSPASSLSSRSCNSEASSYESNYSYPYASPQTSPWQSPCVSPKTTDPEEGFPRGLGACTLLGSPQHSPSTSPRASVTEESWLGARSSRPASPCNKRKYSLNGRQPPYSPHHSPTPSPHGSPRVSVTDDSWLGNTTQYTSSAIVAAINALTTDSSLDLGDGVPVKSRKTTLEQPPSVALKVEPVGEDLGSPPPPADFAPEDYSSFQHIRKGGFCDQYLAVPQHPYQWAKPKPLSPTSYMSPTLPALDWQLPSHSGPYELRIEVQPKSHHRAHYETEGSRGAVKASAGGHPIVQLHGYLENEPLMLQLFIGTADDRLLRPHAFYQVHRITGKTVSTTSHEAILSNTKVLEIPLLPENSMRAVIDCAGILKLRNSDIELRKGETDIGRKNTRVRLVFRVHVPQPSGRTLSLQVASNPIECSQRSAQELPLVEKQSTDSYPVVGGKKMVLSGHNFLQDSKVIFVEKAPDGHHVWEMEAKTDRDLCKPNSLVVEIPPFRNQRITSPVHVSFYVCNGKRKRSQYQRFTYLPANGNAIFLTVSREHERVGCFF
Assay: gel mobility shift assay with two co-translated NFATc versions of different size; test for dimers on DNA
Text: After determining that NFAT rel domains were monomers in solution, we then considered the possibility that NFAT proteins might form dimers when bound to DNA. To address this question we carried out gel mobility shift assays with two different sized versions of NFATc translated in vitro (Hope and Struhl 1987). The shorter version contains the rel similarity region and a small amount of flanking residues and is referred to as NFATc-309. This construct is equivalent to the one that was expressed in *E. coli*. The larger version, NFATc-589, contains additional N-terminal sequences. When expressed individually in a rabbit reticulocyte lysate both versions of NFATc were active and produced protein-DNA complexes with different mobilities. When the two different NFATc proteins were mixed by co-translation the same protein-DNA complexes were apparent and no intermediate species was detectable, as would be expected if the proteins were forming dimers on the DNA.
Electrophoretic mobility shift assays were performed with the indicated amounts of proteins in 50 mM KCl, 25 mM HEPES, 0.05 mM EDTA, 5% glycerol, 1 mM DTT with […] of poly(dI-dC) and 100 ng of BSA. The binding reactions and electrophoresis were carried out at room temperature. The samples were run on a 5% polyacrylamide, 0.5× TBE gel at 200 V.

B1: NFATc-309 (translated in vitro) (other)
chain: MSPTLPALDWQLPSHSGPYELRIEVQPKSHHRAHYETEGSRGAVKASAGGHPIVQLHGYLENEPLMLQLFIGTADDRLLRPHAFYQVHRITGKTVSTTSHEAILSNTKVLEIPLLPENSMRAVIDCAGILKLRNSDIELRKGETDIGRKNTRVRLVFRVHVPQPSGRTLSLQVASNPIECSQRSAQELPLVEKQSTDSYPVVGGKKMVLSGHNFLQDSKVIFVEKAPDGHHVWEMEAKTDRDLCKPNSLVVEIPPFRNQRITSPVHVSFYVCNGKRKRSQYQRFTYLPANGNAIFLTVSREHERVGCFF
  binding result: no binding
